In patent US20160046728:

Target: T1, Ir-CPI (Ixodes ricinus Contact Phase Inhibitor), recombinant
T1 chain: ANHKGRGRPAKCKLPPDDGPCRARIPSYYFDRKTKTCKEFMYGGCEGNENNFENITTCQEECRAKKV

B1: plasmin (protein)
chain: KVYLSECKTGNGKNYRGTMSKTKNGITCQKWSSTSPHRPRFSPATHPSEGLEENYCRNPDNDPQGPWCYTTDPEKRYDYCDILECEEECMHCSGENYDGKISKTMSGLECQAWDSQSPHAHGYIPSKFPNKNLKKNYCRNPDRELRPWCFTTDPNKRWELCDIPRCTTPPPSSGPTYQCLKGTGENYRGNVAVTVSGHTCQHWSAQTPHTHNRTPENFPCKNLDENYCRNPDGKRAPWCHTTNSQVRWEYCKIPSCDSSPVSTEQLAPTAPPELTPVVQDCYHGDGQSYRGTSSTTTTGKKCQSWSSMTPHRHQKTPENYPNAGLTMNYCRNPDADKGPWCFTTDPSVRWEYCNLKKCSGTEASVVAPPPVVLLPDVETPSEEDCMFGNGKGYRGKRATTVTGTPCQDWAAQEPHRHSIFTPETNPRAGLEKNYCRNPDGDVGGPWCYTTNPRKLYDYCDVPQCAAPSFDCGKPQVEPKKCPGRVVGGCVAHPHSWPWQVSLRTRFGMHFCGGTLISPEWVLTAAHCLEKSPRPSSYKVILGAHQEVNLEPHVQEIEVSRLFLEPTRKDIALLKLSSPAVITDKVIPACLPSPNYVVADRTECFITGWGETQGTFGAGLLKEAQLPVIENKVCNRYEFLNGRVQSTELCAGHLAGGTDSCQGDSGGPLVCFEKDKYILQGVTSWGLGCARPNKPGVYVRVSRFVTWIEGVMRNN
amidolytic activity on chromogenic substrate (protease:Ir-CPI 1:5): The results obtained did not show any effect of Ir-CPI protein on the amidolytic activity of these factors

B2: factor VIIa (protein)
chain: ANAFLEELRPGSLERECKEEQCSFEEAREIFKDAERTKLFWISYSDGDQCASSPCQNGGSCKDQLQSYICFCLPAFEGRNCETHKDDQLICVNENGGCEQYCSDHTGTKRSCRCHEGYSLLADGVSCTPTVEYPCGKIPILEKRNASKPQGRIVGGKVCPKGECPWQVLLLVNGAQLCGGTLINTIWVVSAAHCFDKIKNWRNLIAVLGEHDLSEHDGDEQSRRVAQVIIPSTYVPGTTNHDIALLRLHQPVVLTDHVVPLCLPERTFSERTLAFVRFSLVSGWGQLLDRGATALELMVLNVPRLMTQDCLQQSRKVGDSPNITEYMFCAGYSDGSKDSCKGDSGGPHATHYRGTWYLTGIVSWGQGCATVGHFGVYTRVSQYIEWLQKLMRSEPRPGVLLRAPFP
amidolytic activity on chromogenic substrate (protease:Ir-CPI 1:5): The results obtained did not show any effect of Ir-CPI protein on the amidolytic activity of these factors

B3: t-PA (protein)
chain: SYQVICRDEKTQMIYQQHQSWLRPVLRSNRVEYCWCNSGRAQCHSVPVKSCSEPRCFNGGTCQQALYFSDFVCQCPEGFAGKCCEIDTRATCYEDQGISYRGTWSTAESGAECTNWNSSALAQKPYSGRRPDAIRLGLGNHNYCRNPDRDSKPWCYVFKAGKYSSEFCSTPACSEGNSDCYFGNGSAYRGTHSLTESGASCLPWNSMILIGKVYTAQNPSAQALGLGKHNYCRNPDGDAKPWCHVLKNRRLTWEYCDVPSCSTCGLRQYSQPQFRIKGGLFADIASHPWQAAIFAKHRRSPGERFLCGGILISSCWILSAAHCFQERFPPHHLTVILGRTYRVVPGEEEQKFEVEKYIVHKEFDDDTYDNDIALLQLKSDSSRCAQESSVVRTVCLPPADLQLPDWTECELSGYGKHEALSPFYSERLKEAHVRLYPSSRCTSQHLLNRTVTDNMLCAGDTRSGGPQANLHDACQGDSGGPLVCLNDGRMTLVGIISWGLGCGQKDVPGVYTKVTNYLDWIRDNMRP
amidolytic activity on chromogenic substrate (protease:Ir-CPI 1:5): The results obtained did not show any effect of Ir-CPI protein on the amidolytic activity of these factors

B4: factor XIIa (protein)
chain: IPPWEAPKEHKYKAEEHTVVLTVTGEPCHFPFQYHRQLYHKCTHKGRPGPQPWCATTPNFDQDQRWGYCLEPKKVKDHCSKHSPCQKGGTCVNMPSGPHCLCPQHLTGNHCQKEKCFEPQLLRFFHKNEIWYRTEQAAVARCQCKGPDAHCQRLASQACRTNPCLHGGRCLEVEGHRLCHCPVGYTGAFCDVDTKASCYDGRGLSYRGLARTTLSGAPCQPWASEATYRNVTAEQARNWGLGGHAFCRNPDNDIRPWCFVLNRDRLSWEYCDLAQCQTPTQAAPPTPVSPRLHVPLMPAQPAPPKPQPTTRTPPQSQTPGALPAKREQPPSLTRNGPLSCGQRLRKSLSSMTRVVGGLVALRGAHPYIAALYWGHSFCAGSLIAPCWVLTAAHCLQDRPAPEDLTVVLGQERRNHSCEPCQTLAVRSYRLHEAFSPVSYQHDLALLRLQEDADGSCALLSPYVQPVCLPSGAARPSETTLCQVAGWGHQFEGAEEYASFLQEAQVPFLSLERCSAPDVHGSSILPGMLCAGFLEGGTDACQGDSGGPLVCEDQAAERRLTLQGIISWGSGCGDRNKPGVYTDVAYYLAWIREHTVS
activation of factor XI into factor XIa by factor XIIa (reconstituted system, purified factors, chromogenic substrate): Ir-CPI inhibits ... the activation of factor XI into factor XIa by factor XIIa | activation of prekallikrein into kallikrein by factor XIIa (reconstituted system, purified factors, chromogenic substrate): Ir-CPI inhibits the activation of prekallikrein into kallikrein by factor XIIa | amidolytic activity on chromogenic substrate (protease:Ir-CPI 1:5): The results obtained did not show any effect of Ir-CPI protein on the amidolytic activity of these factors

B5: factor Xa (protein)
chain 1: ANSFLEEMKKGHLERECMEETCSYEEAREVFEDSDKTNEFWNKYKDGDQCETSPCQNQGKCKDGLGEYTCTCLEGFEGKNCELFTRKLCSLDNGDCDQFCHEEQNSVVCSCARGYTLADNGKACIPTGPYPCGKQTLER
chain 2: IVGGQECKDGECPWQALLINEENEGFCGGTILSEFYILTAAHCLYQAKRFKVRVGDRNTEQEEGGEAVHEVEVVIKHNRFTKETYDFDIAVLRLKTPITFRMNVAPACLPERDWAESTLMTQKTGIVSGFGRTHEKGRQSTRLKMLEVPYVDRNSCKLSSSFIITQNMFCAGYDTKQEDACQGDSGGPHVTRFKDTYFVTGIVSWGEGCARKGKYGIYTKVTAFLKWIDRSMKTRGLPKAKSHAPEVITSSPLK
amidolytic activity on chromogenic substrate (protease:Ir-CPI 1:5): The results obtained did not show any effect of Ir-CPI protein on the amidolytic activity of these factors
